Assays:
[1] = substrate: CC(C)=CCC[C@]1(C)C=Cc2c(O)c3c(c(CC=C(C)C)c2O1)O[C@]12C(=C[C@@H]4C[C@H]1C(C)(C)O[C@@]2(C/C=C(/C)C(=O)O)C4=O)C3=O; settings: Homo sapiens; 12.4 uM
[2] = substrate: CC(C)=CCC[C@]1(C)C=Cc2c(O)c3c(c(CC=C(C)C)c2O1)O[C@]12C(=C[C@@H]4C[C@H]1C(C)(C)O[C@@]2(C/C=C(/C)C(=O)O)C4=O)C3=O; settings: Homo sapiens; 24.8 uM
[3] = substrate: CC(C)=CCC[C@]1(C)C=Cc2c(O)c3c(c(CC=C(C)C)c2O1)O[C@]12C(=C[C@@H]4C[C@H]1C(C)(C)O[C@@]2(C/C=C(/C)C(=O)O)C4=O)C3=O; settings: Homo sapiens; 49.6 uM
[4] = substrate: CC(C)=CCC[C@]1(C)C=Cc2c(O)c3c(c(CC=C(C)C)c2O1)O[C@]12C(=C[C@@H]4C[C@H]1C(C)(C)O[C@@]2(C/C=C(/C)C(=O)O)C4=O)C3=O; settings: Homo sapiens; 12.4 uM; remark: listed apart in the source
Description: Competitive inhibition of recombinant human PTP1B (1 to 322 residues) expressed in Escherichia coli assessed as substrate Km at 12.4 uM using pNPP as substrate by Lineweaver-Burk plot analysis

[5] = substrate: CC(C)=CCC[C@]1(C)C=Cc2c(O)c3c(c(CC=C(C)C)c2O1)O[C@]12C(=C[C@@H]4C[C@H]1C(C)(C)O[C@@]2(C/C=C(/C)C(=O)O)C4=O)C3=O; settings: Homo sapiens; 24.8 uM; remark: listed apart in the source
Description: Competitive inhibition of recombinant human PTP1B (1 to 322 residues) expressed in Escherichia coli assessed as substrate Km at 24.8 uM using pNPP as substrate by Lineweaver-Burk plot analysis

[6] = substrate: CC(C)=CCC[C@]1(C)C=Cc2c(O)c3c(c(CC=C(C)C)c2O1)O[C@]12C(=C[C@@H]4C[C@H]1C(C)(C)O[C@@]2(C/C=C(/C)C(=O)O)C4=O)C3=O; settings: Homo sapiens; 49.6 uM; remark: listed apart in the source
Description: Competitive inhibition of recombinant human PTP1B (1 to 322 residues) expressed in Escherichia coli assessed as substrate Km at 49.6 uM using pNPP as substrate by Lineweaver-Burk plot analysis

B1: Tyrosine-protein phosphatase non-receptor type 1 (Homo sapiens), P18031 (protein)
chain: MEMEKEFEQIDKSGSWAAIYQDIRHEASDFPCRVAKLPKNKNRNRYRDVSPFDHSRIKLHQEDNDYINASLIKMEEAQRSYILTQGPLPNTCGHFWEMVWEQKSRGVVMLNRVMEKGSLKCAQYWPQKEEKEMIFEDTNLKLTLISEDIKSYYTVRQLELENLTTQETREILHFHYTTWPDFGVPESPASFLNFLFKVRESGSLSPEHGPVVVHCSAGIGRSGTFCLADTCLLLMDKRKDPSSVDIKKVLLEMRKFRMGLIQTADQLRFSYLAVIEGAKFIMGDSSVQDQWKELSHEDLEPPPEHIPPPPRPPKRILEPHNGKCREFFPNHQWVKEETQEDKDCPIKEEKGSPLNAAPYGIESMSQDTEVRSRVVGGSLRGAQAASPAKGEPSLPEKDEDHALSYWKPFLVNMCVATVLTAGAYLCYRFLFNSNT
With B1 the Vmax (optical density/minute) [1] was 12.6, the Vmax (optical density/minute) [2] was 12.9 and the Vmax (optical density/minute) [3] was 13.7. It also gave a Km [4] of 4.46 mM, a Km [5] of 6.84 mM and a Km [6] of 12.7 mM.
